# Results from publication PMC9680306.
# Key:
# Assay in all cases: co-IP; anti-ARMS (mouse, MA1-90667) coupled MagPlex microspheres incubated overnight with cleared RIPA lysates of transfected HEK293 cells; bound TRPV1, ARMS or AKAP79 detected with rabbit antibodies and anti-rabbit-PE on FLEXMAP 3D (MFI); interaction ratio = TRPV1 MFI divided by ARMS MFI; cells untreated or treated with forskolin 50 uM + IBMX 100 uM, H89 10 uM or BPKDi 1 uM
# [1] = biological target: ARMS0 (ARMS with all potential PKA sites mutated to alanine) (rat) (UniProt Q9EQG6)
# [2] = biological target: ARMS_(S1439/40) (ARMS mutant keeping only the PKA site S1439/40) (rat) (UniProt Q9EQG6)
# [3] = biological target: Ankyrin-rich membrane spanning protein (ARMS), wild type (rat) (UniProt Q9EQG6)
# [4] = biological target: ARMS_(T903) (ARMS mutant keeping only the PKA site T903) (rat) (UniProt Q9EQG6)
# [5] = biological target: ARMS_(S1251/52) (ARMS mutant keeping only the PKA site S1251/52) (rat) (UniProt Q9EQG6)
# [6] = biological target: ARMS_(S1526/27) (ARMS mutant keeping only the PKA site S1526/27) (rat) (UniProt Q9EQG6)
# [7] = biological target: ARMS_(S882) (ARMS mutant keeping only the PKA site S882) (rat) (UniProt Q9EQG6)
substance,measurement,setting,value
transient receptor potential vanilloid 1 (TRPV1)-YFP (from UniProt O35433 1-838),"TRPV1 MFI / ARMS MFI in the ARMS precipitate, cells treated with BPKDi",[1],2%
same,"TRPV1 MFI / ARMS MFI in the ARMS precipitate, cells treated with H89",[1],4%
same,"TRPV1 MFI / ARMS MFI in the ARMS precipitate, cells treated with forskolin + IBMX",[1],6%
same,"TRPV1 MFI / ARMS MFI in the ARMS precipitate, untreated cells",[1],5%
same,"TRPV1 MFI / ARMS MFI in the ARMS precipitate, cells treated with BPKDi",[2],3%
same,"TRPV1 MFI / ARMS MFI in the ARMS precipitate, cells treated with H89",[2],4%
same,"TRPV1 MFI / ARMS MFI in the ARMS precipitate, cells treated with forskolin + IBMX",[2],6%
same,"TRPV1 MFI / ARMS MFI in the ARMS precipitate, untreated cells",[2],7%
same,"TRPV1 MFI / ARMS MFI in the ARMS precipitate, cells treated with BPKDi",[3],3%
same,"TRPV1 MFI / ARMS MFI in the ARMS precipitate, cells treated with H89",[3],4%
same,"TRPV1 MFI / ARMS MFI in the ARMS precipitate, cells treated with forskolin + IBMX",[3],9%
same,"TRPV1 MFI / ARMS MFI in the ARMS precipitate, untreated cells",[3],9%
same,"TRPV1 MFI / ARMS MFI in the ARMS precipitate, cells treated with BPKDi",[4],4%
same,"TRPV1 MFI / ARMS MFI in the ARMS precipitate, cells treated with H89",[4],7%
same,"TRPV1 MFI / ARMS MFI in the ARMS precipitate, cells treated with forskolin + IBMX",[4],9%
same,"TRPV1 MFI / ARMS MFI in the ARMS precipitate, untreated cells",[4],12%
same,"TRPV1 MFI / ARMS MFI in the ARMS precipitate, cells treated with BPKDi",[5],5%
same,"TRPV1 MFI / ARMS MFI in the ARMS precipitate, cells treated with H89",[5],6%
same,"TRPV1 MFI / ARMS MFI in the ARMS precipitate, cells treated with forskolin + IBMX",[5],18%
same,"TRPV1 MFI / ARMS MFI in the ARMS precipitate, untreated cells",[5],15%
same,"TRPV1 MFI / ARMS MFI in the ARMS precipitate, cells treated with BPKDi",[6],25%
same,"TRPV1 MFI / ARMS MFI in the ARMS precipitate, cells treated with H89",[6],36%
same,"TRPV1 MFI / ARMS MFI in the ARMS precipitate, cells treated with forskolin + IBMX",[6],63%
same,"TRPV1 MFI / ARMS MFI in the ARMS precipitate, untreated cells",[6],60%
same,"TRPV1 MFI / ARMS MFI in the ARMS precipitate, cells treated with BPKDi",[7],4%
same,"TRPV1 MFI / ARMS MFI in the ARMS precipitate, cells treated with H89",[7],5%
same,"TRPV1 MFI / ARMS MFI in the ARMS precipitate, cells treated with forskolin + IBMX",[7],7%
same,"TRPV1 MFI / ARMS MFI in the ARMS precipitate, untreated cells",[7],10%
